The text below walks through data of paper PMC5730761, “NS3 from Hepatitis C Virus Strain JFH-1 Is an Unusually Robust Helicase That Is Primed To Bind and Unwind Viral RNA”.

Data set [1] deals with T1, JFH-1 NS3 (Hepatitis C virus genotype 2a strain …, UniProt Q99IB8 1031-1661). The data set is described as follows: filter binding; 3 mM Mg2+; (stopped-flow kon 59 uM-1 s-1, Fig 2A); 25 mM MOPS-NH4+ pH 6.5, 3 mM MgCl2, 30 mM NaCl, 1% glycerol, 2 mM DTT, 0.1% Triton X-100; filter binding 37 C, 0.5 nM RNA, Hill fit; stopped flow 25 C. The following applies: protein: recombinant; tags: His6-SUMO removed (native N terminus); 5' Cy3 top strand via C3 amino linker (stopped flow); 3' overhang 18 nt on strand 1.

In data set [2] the target is T2, gt1b NS3 (Hepatitis C virus genotype 1b strain N, UniProt Q9WPH5 1028-1658). The data set is described as follows: filter binding; 3 mM Mg2+; (stopped-flow kon 13 uM-1 s-1, Fig 2A); 25 mM MOPS-NH4+ pH 6.5, 3 mM MgCl2, 30 mM NaCl, 1% glycerol, 2 mM DTT, 0.1% Triton X-100; filter binding 37 C, 0.5 nM RNA, Hill fit; stopped flow 25 C. As to conditions: protein: recombinant; tags: His6-SUMO removed (native N terminus); 5' Cy3 top strand via C3 amino linker (stopped flow); 3' overhang 18 nt on strand 1.

Data set [3] has as its target T1, JFH-1 NS3. Kind of data set: filter binding; 3 mM Mg2+; (stopped-flow kon 69 uM-1 s-1, Fig 2B); 25 mM MOPS-NH4+ pH 6.5, 3 mM MgCl2, 30 mM NaCl, 1% glycerol, 2 mM DTT, 0.1% Triton X-100; filter binding 37 C, 0.5 nM RNA, Hill fit; stopped flow 25 C. As to conditions: protein: recombinant; tags: His6-SUMO removed (native N terminus); 5' Cy3 top strand via C3 amino linker (stopped flow); 3' overhang 12 nt on strand 1.

The target in data set [4] is T2, gt1b NS3. The data set is described as follows: filter binding; 3 mM Mg2+; (stopped-flow kon 9.9 uM-1 s-1, Fig 2B); 25 mM MOPS-NH4+ pH 6.5, 3 mM MgCl2, 30 mM NaCl, 1% glycerol, 2 mM DTT, 0.1% Triton X-100; filter binding 37 C, 0.5 nM RNA, Hill fit; stopped flow 25 C. The following applies: protein: recombinant; tags: His6-SUMO removed (native N terminus); 5' Cy3 top strand via C3 amino linker (stopped flow); 3' overhang 12 nt on strand 1.

In data set [5] the target is T2, gt1b NS3. The data set is described as follows: filter binding; 3 mM Mg2+; (stopped-flow kon 3.5 uM-1 s-1, Fig 2C); 25 mM MOPS-NH4+ pH 6.5, 3 mM MgCl2, 30 mM NaCl, 1% glycerol, 2 mM DTT, 0.1% Triton X-100; filter binding 37 C, 0.5 nM RNA, Hill fit; stopped flow 25 C. The following applies: protein: recombinant; tags: His6-SUMO removed (native N terminus); 5' Cy3 top strand via C3 amino linker (stopped flow); 3' overhang 6 nt on strand 1.

Data set [6] addresses T1, JFH-1 NS3. The data set is described as follows: filter binding; 3 mM Mg2+; (stopped-flow kon 15 uM-1 s-1, Fig 2C); 25 mM MOPS-NH4+ pH 6.5, 3 mM MgCl2, 30 mM NaCl, 1% glycerol, 2 mM DTT, 0.1% Triton X-100; filter binding 37 C, 0.5 nM RNA, Hill fit; stopped flow 25 C. The following applies: protein: recombinant; tags: His6-SUMO removed (native N terminus); 5' Cy3 top strand via C3 amino linker (stopped flow); 3' overhang 6 nt on strand 1.

Data set [7] concerns the target T2, gt1b NS3. Kind of data set: filter binding; 3 mM Mg2+; legend names NS3-4A; 25 mM MOPS-NH4+ pH 6.5, 3 mM MgCl2, 30 mM NaCl, 1% glycerol, 2 mM DTT, 0.1% Triton X-100; filter binding 37 C, 0.5 nM RNA, Hill fit; stopped flow 25 C. As to conditions: protein: recombinant; tags: His6-SUMO removed (native N terminus); label: 5'-32P.
Data set [8] concerns the target T1, JFH-1 NS3. The data set is described as above. As to conditions: protein: recombinant; tags: His6-SUMO removed (native N terminus); label: 5'-32P.

For orientation: Kd means the equilibrium constant for the complex coming apart.

B1: 12bp/18-OH (dsRNA)
RNA 1: CGGCAGCGAGGCAGAGGAGCAGAGGGAGCA
RNA 2: GCCUCGCUGCCG
Regarding B1, the Kd in data set [1] was found to be 6.56 ± 0.23 nM; in data set [2] it was 7.25 ± 0.17 nM.

B2: 12bp/12-OH (dsRNA)
RNA 1: CGGCAGCGAGGCAGAGGAGCAGCA
RNA 2: GCCUCGCUGCCG
Regarding B2, the dissociation constant Kd in data set [3] is 7.69 ± 0.21 nM; in data set [4], 15.7 ± 0.61 nM.

B3: 12bp/6-OH (dsRNA)
RNA 1: CGGCAGCGAGGCAGGACA
RNA 2: GCCUCGCUGCCG
With B3, the dissociation constant (Kd) came out at 60.4 ± 4.38 nM in data set [5] and 14.9 ± 0.52 nM in data set [6].
Regarding CUGUGGCAUGUCCUAGCGUCGUAUCGAUCUGGUC (ssRNA) [ssT34], the figures for the Kd in data set [7] and in data set [8] were 7.56 ± 0.33 nM and 8.36 ± 0.29 nM, respectively.
